From US20260167721A1 (ABLEXIS, published 2026)
Where a chain is given by its changes, count along the chain named.

B1: CD3 × CD33-BspAb115 (bispecific antibody)
chain 1: NFMLTQPHSVSESPGKTVTISCTRTSGSIASNYVQWYQQRPGSSPTTVIYEDNQRPSGVPDRFSGSIDSSSNSASLTISGLKTEDEAAYYCQSYDRSNRVFGCGTKLTVLGGGGSGGGGSGGGGSGGGGSQVQLQESGPGLVKPSETLSLTCTVSGGSISSYYWSWIRQPAGKCLEWIGRIYTSGSTKYNPSLKSRVTMSVDTSKNQFSLKLISVTAADTAVYFCARERIRDLYFDYWGQGTLVTVSSDKTHTCPPCPAPEFEGGPSVFLFPPKPKDTLMISRTPEVTCVVVDVSHEDPEVKFNWYVDGVEVHNAKTKPREEQYNSTYRVVSVLTVLHQDWLNGKEYKCKVSNKALPASIEKTISKAKGQPREPQVYTLPPCREEMTKNQVSLWCLVKGFYPSDIAVEWESNGQPENNYKTTPPVLDSDGSFFLYSKLTVDKSRWQQGNVFSCSVMHEALHNHYTQKSLSLSPGK
chain 2: EVQLVQSGAEVKKPGSSVKVSCKASGYTITDSNIHWVRQAPGQSLEWIGYIYPYNGGTDYNQKFKNRATLTVDNPTNTAYMELSSLRSEDTAFYYCVNGNPWLAYWGQGTLVTVSSASTKGPSVFPLAPSSKSTSGGTAALGCLVKDYFPEPVTVSWNSGALTSGVHTFPAVLQSSGLYSLSSVVTVPSSSLGTQTYICNVNHKPSNTKVDKRVEPKSCDKTHTCPPCPAPEFEGGPSVFLFPPKPKDTLMISRTPEVTCVVVDVSHEDPEVKFNWYVDGVEVHNAKTKPREEQYNSTYRVVSVLTVLHQDWLNGKEYKCKVSNKALPASIEKTISKAKGQPREPQVCTLPPSREEMTKNQVSLSCAVKGFYPSDIAVEWESNGQPENNYKTTPPVLDSDGSFFLVSKLTVDKSRWQQGNVFSCSVMHEALHNRFTQKSLSLSPGK
chain 3: DIQLTQSPSTLSASVGDRVTITCRASESLDNYGIRFLTWFQQKPGKAPKLLMYAASNQGSGVPSRFSGSGSGTEFTLTISSLQPDDFATYYCQQTKEVPWSFGQGTKVEVKRTVAAPSVFIFPPSDEQLKSGTASVVCLLNNFYPREAKVQWKVDNALQSGNSQESVTEQDSKDSTYSLSSTLTLSKADYEKHKVYACEVTHQGLSSPVTKSFNRGEC
B2: High affinity Control (Control Humanized anti-CD3 (high affinity) scFv-Fc knob/TM with gemtuzumab arm) (bispecific antibody)
scFv: EVQLVESGGGLVQPGGSLRLSCAASGFTFSTYAMNWVRQAPGKGLEWVGRIRSKYNNYATYYADSVKGRFTISRDDSKNTLYLQMNSLRAEDTAVYYCVRHGNFGDSYVSWFAYWGQGTLVTVSSGKPGSGKPGSGKPGSGKPGSQAVVTQEPSLTVSPGGTVTLTCGSSTGAVTTSNYANWVQQKPGKSPRGLIGGTNKRAPGVPARFSGSLLGGKAALTISGAQPEDEADYYCALWYSNHWVFGGGTKLTVLGGGGSDKTHTCPPCPAPEFEGGPSVFLFPPKPKDTLMISRTPEVTCVVVDVSHEDPEVKFNWYVDGVEVHNAKTKPREEQYNSTYRVVSVLTVLHQDWLNGKEYKCKVSNKALPASIEKTISKAKGQPREPQVYTLPPCREEMTKNQVSLWCLVKGFYPSDIAVEWESNGQPENNYKTTPPVLDSDGSFFLYSKLTVDKSRWQQGNVFSCSVMHEALHNHYTQKSLSLSPGK
heavy: B1 chain 2
light: B1 chain 3
B3: CD3 × CD33-BspAb116 (bispecific antibody)
chain 1: NFMLTQPHSVSESPGKTVTISCTRSSGSIASNYVQWYQQRPGSSPTTVIYEDNQRPSGVPDRFSGSIDSSSNSASLTISGLKTEDEAYYYCQSFDSSNRVFGCGTKLTVLGGGGSGGGGSGGGGSGGGGSQVQLQESGPGLVKPSQTLSLTCTVSGGSISSGGYYWSWIRQHPGKCLEWIGYIYYSGSTYYNPSLKSRVTISVDTSKDQFSLKLSSVTAADTAVYYCARERKTSLPFDIWGQGTMVTVSSDKTHTCPPCPAPEFEGGPSVFLFPPKPKDTLMISRTPEVTCVVVDVSHEDPEVKFNWYVDGVEVHNAKTKPREEQYNSTYRVVSVLTVLHQDWLNGKEYKCKVSNKALPASIEKTISKAKGQPREPQVYTLPPCREEMTKNQVSLWCLVKGFYPSDIAVEWESNGQPENNYKTTPPVLDSDGSFFLYSKLTVDKSRWQQGNVFSCSVMHEALHNHYTQKSLSLSPGK
chain 2: B1 chain 2
chain 3: B1 chain 3
B4: CD3 × CD33-BspAb125 (bispecific antibody)
chain 1: not shown
chain 2: B1 chain 2
chain 3: B1 chain 3
B5: CD3 × CD33-BspAb71 (bispecific antibody)
chain 1: EVQLVESGGGLVKPGGSLRLSCAASGFTFSSYSMNWVRQAPGKCLEWVSSISRSSSYIYYADSVKGRFTLSRDNAKNSLYLQMNSLRGEDTAIYYCGRDGKGAIFLDYWGQGTLVTVSSGGGGSGGGGSGGGGSGGGGSSYELTQPPSVSVSPGQTARITCSGDALPKKYAYWYQQKSGQAPVLVIYEDSKRPSGIPERFSGSSSGTMATLTISGAQVEDEADYYCYSTHSSGNHRVFGCGTKLTVLDKTHTCPPCPAPEFEGGPSVFLFPPKPKDTLMISRTPEVTCVVVDVSHEDPEVKFNWYVDGVEVHNAKTKPREEQYNSTYRVVSVLTVLHQDWLNGKEYKCKVSNKALPASIEKTISKAKGQPREPQVYTLPPCREEMTKNQVSLWCLVKGFYPSDIAVEWESNGQPENNYKTTPPVLDSDGSFFLYSKLTVDKSRWQQGNVFSCSVMHEALHNHYTQKSLSLSPGK
chain 2: B1 chain 2
chain 3: B1 chain 3
B6: CD3 × CD33-BspAb37 (bispecific antibody)
chain 1: not shown
chain 2: B1 chain 2
chain 3: B1 chain 3
B7: Low affinity Control (Control Humanized anti-CD3 (low affinity) scFv-Fc knob/TM with gemtuzumab arm) (bispecific antibody)
scFv: B2 scFv with A113D
heavy: B1 chain 2
light: B1 chain 3

molecular target: T1, human CD3 (on human Pan-T cells or donor PBMC) (human, UniProt P07766 23-207; P04234 22-171; P09693 23-182; P20963 22-164); assay: cell-based or functional assay
T1 sequence (P07766 23-207, chain 1 of 4): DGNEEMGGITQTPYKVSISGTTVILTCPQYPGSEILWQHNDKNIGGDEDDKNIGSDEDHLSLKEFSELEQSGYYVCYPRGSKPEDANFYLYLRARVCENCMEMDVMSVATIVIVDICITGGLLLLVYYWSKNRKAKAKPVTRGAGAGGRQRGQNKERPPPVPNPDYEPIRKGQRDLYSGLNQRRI
T1 sequence (P04234 22-171, chain 2 of 4): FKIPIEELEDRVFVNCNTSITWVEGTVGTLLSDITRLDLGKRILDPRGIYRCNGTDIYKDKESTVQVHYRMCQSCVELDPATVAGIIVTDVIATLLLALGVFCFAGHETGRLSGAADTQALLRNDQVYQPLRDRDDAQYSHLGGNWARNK
T1 sequence (P09693 23-182, chain 3 of 4): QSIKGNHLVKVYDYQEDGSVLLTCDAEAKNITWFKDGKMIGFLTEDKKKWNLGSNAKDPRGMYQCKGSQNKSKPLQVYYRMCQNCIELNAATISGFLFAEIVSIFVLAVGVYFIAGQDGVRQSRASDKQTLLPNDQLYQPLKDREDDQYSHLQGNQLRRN
T1 sequence (P20963 22-164, chain 4 of 4): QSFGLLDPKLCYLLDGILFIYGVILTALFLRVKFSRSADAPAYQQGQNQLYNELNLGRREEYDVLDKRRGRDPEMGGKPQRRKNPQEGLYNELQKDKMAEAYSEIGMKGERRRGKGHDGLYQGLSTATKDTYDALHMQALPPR

Row | Binder | RTCC Assay, Donor 0, EC50 | RTCC Assay, Donor 0, gMFI max | RTCC Assay, Donor 1, EC50 | RTCC Assay, Donor 1, gMFI max | RTCC Assay, Donor 2, EC50 | RTCC Assay, Donor 2, gMFI max | RTCC Assay, Donor 3, EC50 | RTCC Assay, Donor 3, gMFI max
1 | B1 | 0.054 nM | 38700 gMFI | 0.006 nM | 63000 gMFI | 0.009 nM | 51900 gMFI | 0.011 nM | 82700 gMFI
2 | B2 | 0.908 nM | 75100 gMFI | 0.04 nM | 81700 gMFI | 0.039 nM | 82900 gMFI | 0.031 nM | 87200 gMFI
3 | B3 | 0.126 nM | 24500 gMFI | 0.045 nM | 66000 gMFI | 0.121 nM | 52800 gMFI | 0.171 nM | 65800 gMFI
4 | B4 | 0.166 nM | 26700 gMFI | 0.027 nM | 65500 gMFI | 0.049 nM | 54600 gMFI | 0.055 nM | 84200 gMFI
5 | B5 | 0.479 nM | 23900 gMFI | 0.027 nM | 63000 gMFI | 0.083 nM | 57500 gMFI | 0.377 nM | 78600 gMFI
6 | B6 | 0.172 nM | 31600 gMFI | 0.01 nM | 70600 gMFI | 0.042 nM | 59200 gMFI | 0.053 nM | 82300 gMFI
7 | B7 | 23.7 nM | 59700 gMFI | 5.02 nM | 122000 gMFI | 6.68 nM | 82100 gMFI | 0.299 nM | 104000 gMFI

molecular target: T1, human CD3 (on human Pan-T cells or …); assay: cell-based or functional assay; remark: another data set of the same source

Row | Binder | Cytokine Release Assay (IFNγ), Donor 0, EC50 | Cytokine Release Assay (IFNγ), Donor 0, gMFI max | Cytokine Release Assay (IFNγ), Donor 1, EC50 | Cytokine Release Assay (IFNγ), Donor 1, gMFI max | Cytokine Release Assay (IFNγ), Donor 2, EC50 | Cytokine Release Assay (IFNγ), Donor 2, gMFI max | Cytokine Release Assay (IFNγ), Donor 3, EC50 | Cytokine Release Assay (IFNγ), Donor 3, gMFI max
8 | B1 | 0.0418 nM | 1.6e+06 gMFI | 0.191 nM | 45100 gMFI | 0.0396 nM | 66800 gMFI | 0.0403 nM | 475000 gMFI
9 | B2 | 0.045 nM | 2.82e+06 gMFI | 6.99 nM | 912000 gMFI | 2.16 nM | 1.41e+06 gMFI | 0.126 nM | 1.68e+06 gMFI
10 | B3 |  | 187000 gMFI |  | 5440 gMFI | 0.177 nM | 14100 gMFI | 1.51 nM | 167000 gMFI
11 | B4 | ~12.3 nM | 958000 gMFI |  | 4940 gMFI | 0.103 nM | 16200 gMFI | 0.063 nM | 170000 gMFI
12 | B5 |  | 812000 gMFI |  | 5380 gMFI | 1.91 nM | 27700 gMFI |  | 332000 gMFI
13 | B6 | 0.252 nM | 1.06e+06 gMFI |  | 5560 gMFI | 0.14 nM | 32900 gMFI | 1.76 nM | 317000 gMFI
14 | B7 | 0.308 nM | 2.92e+06 gMFI | 14.4 nM | 129000 gMFI | 16.4 nM | 712000 gMFI | 11.4 nM | 1.08e+06 gMFI
